B1: Protein PTHB1 (Homo sapiens), Q3SYG4 (parent)
chain: MSLFKARDWWSTILGDKEEFDQGCLCLANVDNSGNGQDKIIVGSFMGYLRIFSPHPAKTGDGAQAEDLLLEVDLRDPVLQVEVGKFVSGTEMLHLAVLHSRKLCVYSVSGTLGNVEHGNQCQMKLMYEHNLQRTACNMTYGSFGGVKGRDLICIQSMDGMLMVFEQESYAFGRFLPGFLLPGPLAYSSRTDSFLTVSSCQQVESYKYQVLAFATDADKRQETEQQKLGSGKRLVVDWTLNIGEQALDICIVSFNQSASSVFVLGERNFFCLKDNGQIRFMKKLDWSPSCFLPYCSVSEGTINTLIGNHNNMLHIYQDVTLKWATQLPHIPVAVRVGCLHDLKGVIVTLSDDGHLQCSYLGTDPSLFQAPNVQSRELNYDELDVEMKELQKIIKDVNKSQGVWPMTEREDDLNVSVVVSPNFDSVSQATDVEVGTDLVPSVTVKVTLQNRVILQKAKLSVYVQPPLELTCDQFTFEFMTPDLTRTVSFSVYLKRSYTPSELEGNAVVSYSRPTDRNPDGIPRVIQCKFRLPLKLICLPGQPSKTASHKITIDTNKSPVSLLSLFPGFASQSDDDQVNVMGFHFLGGARITVLASKTSQRYRIQSEQFEDLWLITNELILRLQEYFEKQGVKDFACSFSGSIPLQEYFELIDHHFELRINGEKLEELLSERAVQFRAIQRRLLARFKDKTPAPLQHLDTLLDGTYKQVIALADAVEENQGNLFQSFTRLKSATHLVILLIALWQKLSADQVAILEAAFLPLQEDTQELGWEETVDAAISHLLKTCLSKSSKEQALNLNSQLNIPKDTSQLKKHITLLCDRLSKGGRLCLSTDAAAPQTMVMPGGCTTIPESDLEERSVEQDSTELFTNHRHLTAETPRPEVSPLQGVSE
partner: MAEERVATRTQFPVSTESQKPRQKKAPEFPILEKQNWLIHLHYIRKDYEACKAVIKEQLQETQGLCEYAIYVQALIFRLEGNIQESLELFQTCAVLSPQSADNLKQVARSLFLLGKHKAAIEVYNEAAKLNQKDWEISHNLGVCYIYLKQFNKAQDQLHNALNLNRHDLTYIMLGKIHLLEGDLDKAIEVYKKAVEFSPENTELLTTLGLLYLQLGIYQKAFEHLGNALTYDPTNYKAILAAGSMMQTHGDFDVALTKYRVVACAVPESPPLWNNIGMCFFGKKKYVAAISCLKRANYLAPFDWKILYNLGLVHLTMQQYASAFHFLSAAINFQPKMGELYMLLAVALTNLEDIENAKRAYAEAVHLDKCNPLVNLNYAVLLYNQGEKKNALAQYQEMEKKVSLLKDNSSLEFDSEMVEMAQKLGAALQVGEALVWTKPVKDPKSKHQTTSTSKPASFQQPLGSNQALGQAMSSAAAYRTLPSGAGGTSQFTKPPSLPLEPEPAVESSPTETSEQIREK

Variants of: B1
Details: with bbs4_human BBS4, Q96RK4

Effect of a mutation on the interaction, with no effect:
R726K
Q791E
Q602A
I751A
R521A
S541K
I617E
L870E
L870K
L583A
L583E
I519K
I601E
I601A
P530A
R876K
R876E
H546K
D571K
M477A
V442K
E499A
S603A
S603K
S414K
F527K
N503E
G638A
F563K
Y623E
P556E
P556K
T589K
T428E
S593E
S593K
P438K
N866K
D700K
S486K
G433K
E644K
A586E
Q798E
D422E
E862A
V557A
V557K
L533E
P802A
I640K
L780K
L780E
A746E
E607A
E887K
D850E
H778E
S425A
G718K
C843E
D410A
R683K
F566K
P691A
L737K
Q574K
Q574E
T484A
G842E
S639E
L436K
Q426A
S788A
S729E
E848K
G518E
L815A
K542A
T861A
L642A
L692K
Q705A
N796E
E663A
A833K
L819A
F673E
T482E
T482A
S498K
T836K
L529E
E466A
G823A
S558A
R824E
A504E
K803E
C525K
N412A
L757E
L757A
V444A
D711K
G841A
L620A
V856E
R600E
R600K
L536K
P877K
L733K
Q447A
H811A
I523E
I523A
F474E
F474A
L863K
L795K
L648A
R818E
T871K
V459E
A633K
I548E
D817K
R483K
D551K
N553K
Y508E
A872E
G538K
G538A
L759E
L759K
S820K
K809E
D513A
S828K
T763E
R587A
V417E
Q807E
P834K
V706E
T473K
F624K
P875E
A792E
A792K
I649A
D480A
G565E
P641A
C826E
K781A
F721E
F487E
D572K
S458E
R493E
T552E
T478A
K454E
S777A
K626A
Q643E
Q643A
R407A

Effect of a mutation on the interaction, disrupting interaction strength:
P530L
R674Q
E647G
A690K
A690V
S486R
P691S
A833S
V459A
I738K
F721K
